Conditions in all cases: remark: other sources report otherwise
For assay [1], the target named is recombinant homotrimeric HA A/northern shoveler/California/HKWF115/07 H6N4 (Influenza A virus A/northern shoveler/California/HKWF115/2007(H6N1)). As to the kind of experiment: protein microarray, purified IgG, trimeric HA.
Assay [2] has as its target recombinant homotrimeric HA A/Japan/305/57 H2N2 (Influenza A virus A/Japan/305/1957(H2N2)). Description: protein microarray, purified IgG, trimeric HA.
Assay [3] deals with recombinant homotrimeric HA A/Wisconsin/67/05 H3N2 (Influenza A virus A/Wisconsin/67/2005(H3N2)). As to the kind of experiment: protein microarray, purified IgG, trimeric HA.
The target in assay [4] is recombinant homotrimeric HA A/Hong Kong/1073/99 H9N2 (Influenza A virus A/Hong Kong/1073/99 (H9N2)). As to the kind of experiment: protein microarray, purified IgG, trimeric HA.
Assay [5] concerns the target recombinant homotrimeric HA A/California/4/09 H1N1 (Influenza A virus A/California/04/2009(H1N1)). As to the kind of experiment: protein microarray, purified IgG, trimeric HA.
The target in assay [6] is recombinant homotrimeric HA A/Egypt/3300-NAMRU3/08 H5N1 (Influenza A virus A/Egypt/3300-NAMRU3/2008(H5N1)). Description: protein microarray, purified IgG, trimeric HA.
Assay [7] deals with recombinant homotrimeric HA A/chicken/Vietnam/NCVD-016/08 H5N1 (Influenza A virus A/chicken/Vietnam/NCVD-016/2008(H5N1)). As to the kind of experiment: protein microarray, purified IgG, trimeric HA.
In assay [8] the target is recombinant homotrimeric HA A/duck/Yangzhou/02/05 H8N4 (Influenza A virus A/duck/Yangzhou/02/2005(H8N4)). Description: protein microarray, purified IgG, trimeric HA.
Assay [9] addresses recombinant homotrimeric HA A/Netherlands/219/03 H7N7 (Influenza A virus A/Netherlands/219/03(H7N7)). Description: protein microarray, purified IgG, trimeric HA.
For assay [10], the target named is recombinant homotrimeric HA A/South Carolina/1/18 H1N1 (Influenza A virus A/South Carolina/1/18 (H1N1)). Description: protein microarray, purified IgG, trimeric HA.
In assay [11] the target is recombinant soluble homotrimeric HA, A/Egypt/3300-NAMRU3/08 H5N1 (Influenza A virus A/Egypt/3300-NAMRU3/2008(H5N1)). Description: microarray, transfection SN IgG, trimeric HA.
In assay [12] the target is recombinant soluble homotrimeric HA, A/chicken/Vietnam/NCVD-016/08 H5N1 (Influenza A virus A/chicken/Vietnam/NCVD-016/2008(H5N1)). As to the kind of experiment: microarray, transfection SN IgG, trimeric HA.
The target in assay [13] is recombinant soluble homotrimeric HA, A/Solomon Islands/3/06 H1N1 (Influenza A virus A/Solomon Islands/3/2006(H1N1)). As to the kind of experiment: microarray, transfection SN IgG, trimeric HA.
The target in assay [14] is recombinant soluble homotrimeric HA, A/Wisconsin/67/05 H3N2 (Influenza A virus A/Wisconsin/67/2005(H3N2)). Description: microarray, transfection SN IgG, trimeric HA.
Assay [15] deals with recombinant soluble homotrimeric HA, A/Japan/305/57 H2N2 (Influenza A virus A/Japan/305/1957(H2N2)). As to the kind of experiment: microarray, transfection SN IgG, trimeric HA.
Assay [16] addresses recombinant soluble homotrimeric HA, A/northern shoveler/California/HKWF115/07 H6N4 (Influenza A virus A/northern shoveler/California/HKWF115/2007(H6N1)). Description: microarray, transfection SN IgG, trimeric HA.
Assay [17] addresses recombinant soluble homotrimeric HA, A/California/4/09 H1N1 (Influenza A virus A/California/04/2009(H1N1)). Description: microarray, transfection SN IgG, trimeric HA.
The target of assay [18] is recombinant soluble homotrimeric HA, A/duck/Yangzhou/02/05 H8N4 (Influenza A virus A/duck/Yangzhou/02/2005(H8N4)). As to the kind of experiment: microarray, transfection SN IgG, trimeric HA.
Assay [19] concerns the target recombinant soluble homotrimeric HA, A/South Carolina/1/18 H1N1 (Influenza A virus A/South Carolina/1/18 (H1N1)). Description: microarray, transfection SN IgG, trimeric HA.
The target in assay [20] is recombinant soluble homotrimeric HA, A/Netherlands/219/03 H7N7 (Influenza A virus A/Netherlands/219/03(H7N7)). As to the kind of experiment: microarray, transfection SN IgG, trimeric HA.
Assay [21] deals with recombinant soluble homotrimeric HA, A/swine/Ontario/01911-2/99 H4N6 (Influenza A virus A/Swine/Ontario/01911-2/99 (H4N6)). Description: microarray, transfection SN IgG, trimeric HA.
The target of assay [22] is recombinant soluble homotrimeric HA of A/Wisconsin/67/05 (H3N2) (Influenza A virus A/Wisconsin/67/2005(H3N2)). As to the kind of experiment: HA microarray, BCC supernatant.
Assay [23] has as its target recombinant soluble homotrimeric HA of A/Japan/305/57 (H2N2) (Influenza A virus A/Japan/305/1957(H2N2)). As to the kind of experiment: HA microarray, BCC supernatant.
Assay [24] has as its target recombinant soluble homotrimeric HA of A/Solomon Islands/3/06 (H1N1) (Influenza A virus A/Solomon Islands/3/2006(H1N1)). As to the kind of experiment: HA microarray, BCC supernatant.
Assay [25] deals with recombinant soluble homotrimeric HA of A/Netherlands/219/03 (H7N7) (Influenza A virus A/Netherlands/219/03(H7N7)). As to the kind of experiment: HA microarray, BCC supernatant.
In assay [26] the target is recombinant soluble homotrimeric HA of A/chicken/Vietnam/NCVD-016/08 (H5N1) (Influenza A virus A/chicken/Vietnam/NCVD-016/2008(H5N1)). As to the kind of experiment: HA microarray, BCC supernatant.
Assay [27] addresses recombinant soluble homotrimeric HA of A/California/4/09 (H1N1) (Influenza A virus A/California/04/2009(H1N1)). Description: HA microarray, BCC supernatant.
Assay [28] has as its target recombinant soluble homotrimeric HA of A/northern shoveler/California/HKWF115/07 (H6) (Influenza A virus A/northern shoveler/California/HKWF115/2007(H6N1)). Description: HA microarray, BCC supernatant.
Assay [29] has as its target recombinant soluble homotrimeric HA of A/duck/Yangzhou/02/05 (H8N4) (Influenza A virus A/duck/Yangzhou/02/2005(H8N4)). As to the kind of experiment: HA microarray, BCC supernatant.
The target in assay [30] is recombinant soluble homotrimeric HA of A/swine/Ontario/01911-2/99 (H4N6) (Influenza A virus A/Swine/Ontario/01911-2/99 (H4N6)). Description: HA microarray, BCC supernatant.

B1: TCN-549 (5092_P04) (antibody, V domains shown)
VH: QVQLVQSGAEVKKPGASVKVSCKASGYTFTGYYMHWVRQAPGQGLEWMGWINPNSGDTNYAQKFQGRVTMTRDTSITTAYMELSSLRSDDTAVYYCARDSPYSSSWSFFDYWGQGPLVTVSS
VL: not shown
As to B1, the Trimeric HA Binding: RLU is 112 RLU in assay [1]; 413 RLU in assay [2]; 27200 RLU in assay [3]; 450 RLU in [4]; 196 RLU in assay [5]; 6920 RLU in assay [6]. For the same molecule, the Trimeric HA Binding: RLU in [7] came out at 177 RLU; in [8] it was 166 RLU; in assay [9], 193 RLU; in assay [10], 72 RLU; in assay [11] it was 18600 RLU; in [12], 1600 RLU. The Trimeric HA Binding: RLU in assay [13] was 640 RLU; in assay [14], 51600 RLU; in assay [15], 1080 RLU; in assay [16], 996 RLU; in assay [17], 622 RLU; in assay [18], 9450 RLU. Moreover, the Trimeric HA Binding: RLU came to 2340 RLU in assay [19]; 8480 RLU in assay [20]; 1880 RLU in assay [21]; 30900 RLU in [22]; 387 RLU in [23]; 284 RLU in [24]. Further, the Trimeric HA Binding: RLU in assay [25] was found to be 1130 RLU; in [26], 498 RLU; in [27], 338 RLU; in [28], 1100 RLU.

B2: TCN-547 (5092_F11) (antibody, V domains shown)
VH: QVQLQESGPGLVKPSQTLSLTCTVSGDSISSVDHYWSWIRQHPVKGLEWIGFMYYSASTYYNPSLKSRVTISTDTSKNQFSLRLSSVTAADTAVYYCARGTCAGDCSLHYYYYGLDVWGQGRTVTVSS
VL: DIQMTQSPSSLSASVGDRVTITCRASQSISSYLNWYQHKPGKAPKVLMYAVSILQSGVPSRFSGSGSGADFTLTISSLQPEDFATYYCQQSYSSPLTFGGGTKVEIK
As to B2, the Trimeric HA Binding: RLU is 16800 RLU in assay [11]; 1320 RLU in [12]; 1080 RLU in assay [13]; 6970 RLU in [14]; 1350 RLU in assay [15]; 2620 RLU in assay [16]. The Trimeric HA Binding: RLU was 3340 RLU in assay [18]; 2020 RLU in assay [19]; 2090 RLU in assay [20]; 1600 RLU in assay [21]; 16900 RLU in [22]; 40 RLU in [23]. Moreover, the Trimeric HA Binding: RLU came to 155 RLU in assay [24], 401 RLU in [25], 278 RLU in assay [29] and 252 RLU in assay [30].

Values taken from patent publication US20150086555A1.
